Measurements published in the supplement of paper PMC10567573.

B1: DVL3 (parent)
chain: YNPHPGFPELGYSYGGGSASSQHS
B2: VPS39 (parent)
chain: LRLENNHCHIEESEHVLKKAHKYS

Variants of: B1
Test: protein stability index of a GFP-peptide fusion (GPS, HEK-293T) (PSI 1-6); higher = more stable
Settings: c terminus: a fixed tail appended
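Further: lentivirally expressed fusions sorted by FACS into six bins by GFP to DsRed ratio, PSI derived from sequencing read proportions per bin multiplied by bin number.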

Protein stability index: each site, then its substitutions
Q22: W 2.06 | D 3.41 | E 2.85 | M 2.08 | N 2.6 | R 2.58 | Y 2.4 | K 3.4 | F 2.88 | I 2.33 | C 2.13 | H 2.73 | G 2.62 | S 2.71 | L 1.67 | P 2.98 | A 2.23 | V 2.33 | T 3.69
H23: V 2.32 | P 2.79 | F 2.37 | R 3 | A 2.62 | D 3.14 | S 2.62 | Y 2.92 | I 2.9 | N 2.99 | T 3.2 | C 2.38 | W 2.19 | E 2.6 | Q 2.58 | L 2.86 | K 2.87 | M 3.04 | G 2.78
A19: Y 2.4 | M 2.57 | T 2.53 | N 3.07 | V 2.03 | S 2.79 | G 3.57 | I 2.3 | R 3.04 | C 2.19 | H 2.3 | W 1.4 | Q 2.99 | F 2.09 | E 2.92 | P 2.74 | D 3.01 | K 2.94 | L 2.17
S20: P 2.89 | Y 1.79 | Q 2.66 | C 2.88 | T 2.58 | I 2.08 | E 2.95 | W 1.95 | M 2.46 | G 2.97 | D 3.09 | R 2.73 | V 3.12 | L 2.2 | A 3.01 | H 2.59 | N 2.74 | F 2 | K 2.65
G17: H 2.15 | K 2.83 | A 2.73 | P 2.62 | F 1.77 | I 1.96 | S 3.29 | T 2.85 | D 2.72 | E 3.05 | C 3.22 | W 1.69 | M 2.25 | N 2.6 | L 2.14 | Q 2.87 | R 2.82 | Y 2.23 | V 1.63
S18: Q 2.92 | P 2.71 | M 2.08 | G 2.68 | D 2.85 | K 3.09 | N 3 | I 2.49 | W 1.65 | R 2.44 | H 2.53 | V 2.72 | F 2.58 | T 2.26 | Y 2.11 | E 3.19 | A 2.94 | C 2.57 | L 1.83
S21: I 2.56 | M 2.89 | R 2.86 | E 2.96 | W 1.95 | D 3.01 | L 2.24 | V 3.41 | T 2.64 | A 3.1 | Q 2.79 | G 2.61 | C 2.1 | F 1.88 | H 2.55 | K 2.54 | P 2.88 | Y 2.37 | N 2.62
S24: W 2.03 | G 3.11 | V 2.41 | H 2.33 | A 2.33 | F 2.14 | M 2.44 | D 3.13 | P 3.36 | E 2.41 | K 2.76 | N 2.42 | R 1.87 | L 2.62 | Y 2.26 | I 2.56 | T 1.78
G16: T 2.57 | Y 2.32 | S 2.95 | V 1.89 | P 2.74 | W 2.04 | Q 3.02 | R 2.63

Variants of: B2
Test: as above
Settings: c terminus: a fixed tail appended

Protein stability index, by site and new letter:
N6: F 1.75 | H 3.16 | D 2.54 | S 2.55 | Q 2.63 | W 1.97 | T 2.35 | V 2.13 | R 2.49 | I 2.33 | L 2.58 | K 3.49 | Y 2.23 | M 1.87 | C 2.44 | A 2.72 | G 2.66 | P 2.12 | E 3.13
E4: P 2.83 | H 3.32 | R 3.45 | T 2.56 | K 3.45 | A 2.68 | N 3.92 | W 2.44 | M 2.65 | V 2.71 | I 2.17 | G 2.41 | D 3.12 | L 2.35 | C 2.44 | F 2.54 | Q 2.92 | S 2.71 | Y 2.53
H9: R 2.83 | L 1.84 | Q 2.57 | M 2.42 | S 3.23 | F 1.92 | W 2.18 | N 2.27 | C 2.86 | T 3.29 | A 2.2 | D 2.68 | E 1.59 | Y 1.92 | G 2.7 | V 2.4 | K 3.59 | I 2.19 | P 1.8
N5: Y 2.37 | G 1.91 | D 1.94 | W 1.74 | C 2.22 | L 2.23 | A 2.23 | R 2.77 | T 2.48 | H 1.91 | Q 2.18 | I 2.22 | P 2.29 | V 1.48 | S 1.98 | K 3.08 | F 1.27 | M 2.33 | E 2.46
L3: Q 4.06 | Y 2.56 | I 2.62 | R 4.51 | D 3.12 | E 4.58 | P 3.7 | V 2.38 | S 3.33 | K 4.32 | M 3.13 | N 3.17 | F 2.09 | A 3.55 | G 4.43 | W 3.01 | H 3.6 | T 3.06
L1: F 2.3 | V 2.29 | M 2.99 | P 3.79 | H 4.02 | I 3.44 | W 3.14 | C 3.29 | R 3.48 | G 4.6 | S 4.19 | Y 4.1 | K 4.2 | A 3.91 | T 4.32 | D 4.36 | Q 4.08 | E 4.29 | N 3.65
R2: S 3.62 | L 2.54 | H 3.55 | W 2.15 | A 3.68 | Y 2.79 | K 3.12 | D 4.26 | M 2.66 | N 3.55 | G 4.24 | E 4.59 | Q 4.11 | P 4.55 | V 2.44 | I 2.54 | F 2.62 | C 3.15 | T 3.81
C8: H 3.03 | P 2.53 | K 3.3 | F 2.29 | W 2.4 | G 2.27 | R 2.95 | M 2.43 | I 2.15 | L 2.47 | A 3.17 | Y 1.86 | N 2.38 | V 1.88 | E 2.35 | T 3.19 | Q 2.27 | S 2.88 | D 3.58
H7: E 2.38 | Q 2.34 | Y 2.79 | L 2.32 | P 3.01 | W 2.17 | S 2.04 | A 2.79 | N 3.37 | K 2.84 | G 1.97 | V 2.35 | M 2.46 | T 2.88 | I 2.15 | C 2.15 | F 2.03 | R 2.9 | D 2
I10: A 3.75 | D 3.53 | C 3.18 | F 2.11 | G 2.74 | E 3.08
